According to the nanobody polyreactivity screen of Harvey et al. (2022):

test: yeast display, Sf9 membrane polyspecificity reagent, FACS + sequencing; frameworks hold sequencing errors
Outline: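 Using colony PCR, genes from sorted yeast display clones were amplified, then sequenced on MiSeq at 2 × 250 and filtered by CDR length. The clones had been stained with 10% biotinylated, detergent-solubilized Sf9 membrane reagent for 1 hour at 4 °C and sorted by FACS into low and high (top ~1%) gates on anti-HA and streptavidin fluorescence. Polyreactivity labels come from the gate of origin.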

Row | Sequence | polyreactivity (PSR sort gate)
1 | QVQLGHSGGGLVQAGGSLRLTCAPSGSIFGYKAMGWYRQAPGKERELVAAISSTGGSTYYADSVKGRFTISRDNAKNTVYLQMNSLKPEDTAVYYCAKQVADRYVYWGQGTQVTVSS | low polyreactivity
2 | QVQLHERGDGLVQAVGSLRLSCAASGYISGYYYMGWYRQATGKERELVAGIDALGSSTNYADCVKGRFTISRDNAKNTVYLQMNSLKPEDTAVYYCAARPDGDRLFSYWGQGTQVTVSS | low polyreactivity
3 | QVQLHESGGGLVQAGGSLRLRCAASGTISYAGPMGWYRQAPGKEREFGAGIGVGSNTNYADSVKGRYTIIRDNAKNTVFLQMNSLKPEDTAVYYCAVGGYAPLGRPYWGQGTQVTVSS | low polyreactivity
4 | QVQLHESGGGLVQAGGSLRLSCAASGTISQEDWMGWYRKAPRKEREFVAAIGLGSNTNYADSLKGRFTISRDNANNTVYLQMNSLKPEDTAVYYCAVSVWQYSDHVYRGQGTQVTVSS | low polyreactivity
5 | QVQLHESGGGLVQAGGSLRLSCAASGTISYAGPMGWYRQAPGKEREFVAGIGVGSNTNYADSVKGRYTIIRDNAKNTVYLQMTSLKPEETAVYYCAVGGYAPLGPPYWGQGTQVTVSS | low polyreactivity
6 | QVQLHESGGGLVQAGGSMRLSCEASGTISYAGTMGWYRQAPGKEREFVAGIGLGSNTNYADSVKGRYTIIRDNEKKSVYLQMNSLKPEDTSLYYFAVGVYDPLGRPYWCQGTQVTVSS | low polyreactivity
7 | QVQLHESGRGLVQAGGSLRLSCAATATISYAGPMGWYRQAPGKEREFVAGIGVGSNTNYADSVKGRYTIIRDNAKNTVYLQMNSLKPEDTAVYSCAVGGYAPLGRPYWGQGTQVTVSS | low polyreactivity
8 | QVQLIESGGGLVQAGGSLRLSCAASGRTFKRYAMGWYRQAPGKERELVARITYSGARTYYADSVKGRFTISRDNAKNTVYLQMNSLKPEDTAVYYCAAQQYWTSQYFRSATFDYWGQGTQVTVSS | high polyreactivity
9 | QVQLIESGGGLVQAGGSLRLSCAASGSIFAANAMGWYRQAPGKEREFVASISYTGASTYADSVKGRFTISRDNAKNTVYFQMNSLKPEDTAVYYCAKDGYWTGLDPYYYWGQGTQVTVSS | low polyreactivity
10 | QVQLIESGGGLVQAGGSLRLSCAASGSIFYNNTMGWYRQAPGKERELVATIRTSGGSTYADSVKGRYTISRDNAKNTLYLQMNSLKPEDTAVYYCAVRRYRSSSYYYWGQGTQVTVSS | high polyreactivity
11 | QVQLIESGGGLVQAGGSLRLSCAASGSTFYGNAMGWYRQAPGKEREFVAAITGSGDSTDYADSVKGRFTISRDNAKNTVYLQMNSLIPEDTAVYYCNAVGYTPSKPSKFDYWGQGTQVTVSS | low polyreactivity
12 | QVQLKESGVGLVQAGGSLRLSCAASGTIYWLWSMGWYCQAPGKERELVASISSGGTTYHADSVKGRFTISRDNAKNTVYLQMNSLNPEDTAVYYSAAFYVATAKLGYWGQGSQVTVSS | low polyreactivity
13 | QVQLLDSGGGLVKAGGILRLSCAASGRTFGRYAMGCYRQSPGKERELVATISSRGGNAYYAESVKGRFTISRDNAKNTVYFQMNSLKPEYTGVYYCEAQTYKCYDWRQGTQVTVSS | high polyreactivity
14 | QVQLLESCGGLDQAGGSLRLSCAASGSTFGTNAMGWYRKAPGKERELVAAITSSGGSTNYADSVKWRFTISLDNANNSVYFQMNCLKPEDTAVYYCNDVSYSTTYGGDSWGQGTQVTVSS | low polyreactivity
15 | QVQLLESCGGLVQAGGSLRLSCAASGGTFQRYAMGWYRQAPGKERELVAAISSGGRTYYADSVKGRFTISRDNAKNTVYLEMNSLKAEDNAVYYCNAVGWTQRGRMFEYWGQGTQVTVSS | high polyreactivity
16 | QVQLLESGAGLVQAGGSLRLSCAASGYIFYTYAMGWYRQAPGKERELVAAISSNGGSTYYADSVKGRFTISRDHAKNTVYLQMNSLKPEDTAVYYCAARGPYTRYRLSMDYWGQGTQVTVSS | high polyreactivity
17 | QVQLLESGGGFVQAGGSLRLSCAASGQTFHGNTMGWYRQAPGKERELVAAISFDGGNTYADSVKGRFTKSRDNAKTSVYLHMNSLKPEDSAVYYDYWGPGTQVTVSS | low polyreactivity
18 | QVQLLESGGGIVQAGGSLRLSCAASGRTFSRYVMGWYRQAPGKERELVATISRSGGSTFYADSVKGRFTISRDNAKNTVYLQMNSLKPEDTAVYYCNKKVQGYQVTYGYWGQGTQVTVSS | high polyreactivity
19 | QVQLLESGGGLDQARGSLRLSCAASGRTFYGYGMGWSRQAPGKEREFVAAISYSGGSTYYADSVKGRFTISRDNAKNTVYLQMNSLKPEDTAVYYSAARNRGSCYYYWGQGTQVTVSS | high polyreactivity
20 | QVQLLESGGGLVQAGASLRLSCAASGSTFSYYAMGWYRQAPGKERELDAAISWRGSSTYYADSVKRRITISRDNANNTVYLQMNSLTPEATAVYYCAAGYPGRVSGYLYGTRATYYYWGQGTQVTVSS | high polyreactivity
21 | QVQLLESGGGLVQAGGILRLRCAASGIIVRGYVMGWYRQAPGKESELVAAISTSGGRTSYADSVKGRFTISRDNAKNTVYLQMNSLKPEDTAVYYCAARPLYSYSQSGYGYWGQGTQVTVSS | high polyreactivity
22 | QVQLLESGGGLVQAGGSDRLSCAASGSIFSFNAMGWYRQAPGKERELVAAISRGGSTYYADSVKGRFTISRDNAKNTVYLQLNSLKPEDTAVYYCAADIYGHSYSYYLGEYWGQGTQVTVSS | high polyreactivity

Row | Sequence | polyreactivity (PSR sort gate)
23 | QVQLLESGGGLVQAGGSIRLSFADSAFIFTSYSIGRYRQAPGKEREFVAAISWTGGTYYADSVKGRFTISRDNAKNTVYFLINSLKPEDTAVYYCAVRYKRKGSGYRYYLYVYWGQGTQVTVSS | high polyreactivity
24 | QVQLLESGGGLVQAGGSLRISCAASGSTLRTNAMGWYRQAPGKERELVAAISTRGSSTYYADSVKGRFTISRDNSKNTVYLQMNSLKPEDTAVYYCAKDGVWYYSGTGMDYWGQGTQVTVSS | low polyreactivity
25 | QVQLLESGGGLVQAGGSLRLCCASSGYIFWGANMGWYRQAPGKEREFVAAIGHGTVTCYADSVKGRFTISRDNAKNTVYLQMNSLKPEDTAVYNCAAYSDVRKPHRYWGQGTQVTVVS | high polyreactivity
26 | QVQLLESGGGLVQAGGSLRLICAASGSTFVVYAMGWYRQAPGKERELVAAIRSGGGTYYADSVKGRFTISRDNAKNTVYLQMNSQKPEDTAVYYCNADSDPGPAYVYRDLYDYWGQGTQVTLSS | low polyreactivity
27 | QVQLLESGGGLVQAGGSLRLSCAASGFIFYHYAMGWYIQAPGKERELVAANSRSGTSTYYADSVKGRFTISRDNAKNTVYLQMNSLKPEDTAVYYCNAVYTRYVYYYYEYDYWGQGTQVTVSS | high polyreactivity
28 | QVQLLESGGGLVQAGGSLRLSCAASGFTFAWYAMGWYRQAPGKERELVAAISSRGSRTRYADSVKGRFTISRDNAKNTVYLQLNSLKPEDTAFYYCAKGSGARVVQVDRSGDYWGQGTQVTVSS | high polyreactivity
29 | QVQLLESGGGLVQAGGSLRLSCAASGFTFGRYAMGWYRQAPGKERELVAAINTSGDRTFYADSVKGRFTISRDNAKNTVYLQMNSLKPVDTAVYYCAADVQSWVYPGSLYYWTYDFWGQGTQVTVSS | high polyreactivity
30 | QVQLLESGGGLVQAGGSLRLSCAASGFTFTYYAMGWYRQAPGKERELVAAISRRGGSTYYADSVKGRFTISRDNAKNTVYLQMNSLKPEDTAVYYCARDYNSAVGMVYWGQGTQVTVSS | high polyreactivity
31 | QVQLLESGGGLVQAGGSLRLSCAASGITFSRNAMGWYRQAPGKERELVATITSGGSTNYADSVKGRFTITRDNAMNTVYLQMISLKPEDTAVYYCYAVWNTFISGRSYEYWGQGTQVTVSS | low polyreactivity
32 | QVQLLESGGGLVQAGGSLRLSCAASGLTICYYAMGWYRQAPGKEREYVAAITSRGGDTYYADSVKGRFTISRDNAKNTVYLEMNSLKPEDTAVYYCAVRPRYYGTYRYYYWGQGTQVTVSS | high polyreactivity
33 | QVQLLESGGGLVQAGGSLRLSCAASGLTIKQYAMGWYRQAPGKESELVAAISKSGGRTYYADSVKGRFTISRDNAKNTVYLQMNSLKPEDTAVYYCNARAGQRQGWEYDYWGQGTQVTVSS | high polyreactivity
34 | QVQLLESGGGLVQAGGSLRLSCAASGRIFNPYAMGWFRQARGKERALVAASSSCGDRTFYADSVKGRFTISRDNAKNTVYLQMNSRKPEDTAVYFCNTVVYTRFRPWRYGYCGQGTQVTVSS | high polyreactivity
35 | QVQLLESGGGLVQAGGSLRLSCAASGRIFPYNAMGWYRQAPGKERELVAAISRSGGRTYYADSVKGRFTISRDNAKNTVYLQRNSLKPEDTAVYYCAAKYQAGENYWGQGTQVTVSS | high polyreactivity
36 | QVQLLESGGGLVQAGGSLRLSCAASGRIFSFYTMGWYRQAPGKERELVAAITWRGGSTYYADSVKGRFTISRDNAKNTVYLQMNSLKPEDTAVYYCAAEVYGAVYDYWGQGTQVTVSS | low polyreactivity
37 | QVQLLESGGGLVQAGGSLRLSCAASGRIFSRYAMGWYRQAPGKERELVASISWSGDGTYYADSVKGRFTISRDNAKNTVYLQMNSLKPEDTAVYYCAAAPWDAPWSGYEYWGQGTEVTVSS | high polyreactivity
38 | QVQLLESGGGLVQAGGSLRLSCAASGRIFVRNAMGWYRQAPGKERELVAAITSSGGRTYYADSVKGRFTISRDNAKNTVYLQMNSLKPEDTAVYYCNADDFGYASYEYWGQGSQVTVSS | low polyreactivity
39 | QVQLLESGGGLVQAGGSLRLSCAASGRIIPYYAMGWYRQAPGKERELVATITSGGSTYYADSVKGRFTISRDNAKNTVYLQRNSLKPEDTAVYYCAARYPSIYYYRYDYWGQGTHVTVSS | high polyreactivity
40 | QVQLLESGGGLVQAGGSLRLSCAASGRIYLYAMGWYRQTPGKERELVAAISYSGGSTYYADSVKGRFTISRDNAKNTVYLQMNSLKPEDTAVYYCAAEAGSYWRWFWYDSWGQGTQVTVSS | high polyreactivity
41 | QVQLLESGGGLVQAGGSLRLSCAASGRTFEKNAMGWYRQAPGNERELVASITSVGSTDYADSVKGSFTISRDNAKNTVYLQMNSLKPEDNAVYYCAKTLGSQNYDFDYWGQGTQVNVSS | low polyreactivity
42 | QVQLLESGGGLVQAGGSLRLSCAASGRTFHFNAMGWYRKAPWKERELVAAITNSGGRTSYADSVKGRFTISRDNAKNTVYLQMNSLKPEDTAVYYCNVEVTYSSGKYDYWGQGTQVTVSS | low polyreactivity
43 | QVQLLESGGGLVQAGGSLRLSCAASGRTFRSYAMGWYRQAPGKERELVAAISRSDGSTYYAESVKVRFTISRDNAKNTVYLQMNSLKPEDTAVYYCARSLYASSYLMYYWGQGTQVTVSS | high polyreactivity
